Reference: patent US20130129739A1 (Bayer, published 2013)
Changes are numbered by the printed parent chain.

T1: extracellular domain of human PRLR (monomeric, soluble) (human, UniProt P16471 25-234)
T1 construct: also called ECD-PRLR; ECD of PRLR
T1 sequence: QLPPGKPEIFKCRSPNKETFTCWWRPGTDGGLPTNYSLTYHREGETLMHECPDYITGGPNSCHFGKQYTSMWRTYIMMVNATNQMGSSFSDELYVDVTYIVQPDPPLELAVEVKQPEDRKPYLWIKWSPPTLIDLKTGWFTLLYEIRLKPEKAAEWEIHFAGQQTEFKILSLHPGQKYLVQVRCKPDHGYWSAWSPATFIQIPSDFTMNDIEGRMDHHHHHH

B1: 005-C04-25-6 (Fab, V domains shown)
VH: EVQLLESGGGLVQPGGSLRLSCAASGFTFSSYWWHWVRQAPGKGLEWVSDMSRLSSYTNYADSVKGRFTISRDNSKNTLYLQMNSLRAEDTAVYYCARGLDARRMDYWGQGTLVTVTS
VL: QSVLTQPPSASGTPGQRVTISCTGSSSNIGYGYVVHWYQQLPGTAPKLLIYRNNVRQSGVPDRFSGSKSGTSASLAISGLRSEDEADYYCAAWDDSLNGWLFGGGTKLTVLG
notes: Maturated 005-C04 variant; Fab in E. coli supernatant, flag-detected
B2: 005-C04-29-0 (Fab, V domains shown)
VH: B1 VH with W34N, L54A
VL: B1 VL with V55Q
notes: as for B1
B3: 005-C04-29-17-0 (Fab, V domains shown)
VH: B1 VH with W34M, M51I, R53S, L54A
VL: B1 VL with Y31A, V55Q, Q57P, N98S
notes: as for B1
B4: 005-C04-29-17-2 (Fab, V domains shown)
VH: B1 VH with W34M, M51I, R53S, L54A
VL: B1 VL with Y31A, V55Q, Q57P, N98G
notes: as for B1
B5: 005-C04-29-17-3 (Fab, V domains shown)
VH: B1 VH with W34M, M51I, R53S, L54A
VL: B1 VL with Y31A, V55Q, Q57P, N98F
notes: as for B1
B6: 005-C04-29-17-7 (Fab, V domains shown)
VH: B1 VH with W34M, M51I, R53S, L54A
VL: B1 VL with Y31A, V55Q, Q57P, N98L
notes: as for B1
B7: 005-C04-36-0 (Fab, V domains shown)
VH: B1 VH with M51I, S52A, L54A, S56P
VL: B1 VL with Q57P
notes: as for B1
B8: 005-C04-37-2 (Fab, V domains shown)
VH: B1 VH with M51I, R53S, N59G
VL: B1 VL with V55W, Q57P
notes: as for B1
B9: 005-C04-37-7 (Fab, V domains shown)
VH: B1 VH with M51I, R53S, N59G
VL: B1 VL with V55W, Q57P
notes: as for B1
B10: 005-C04-40-4 (Fab, V domains shown)
VH: B1 VH with W34N, S52A
VL: B1 VL
notes: as for B1
B11: 005-C04-42-1 (Fab, V domains shown)
VH: B1 VH with W34N, M51I
VL: B1 VL with V55Q
notes: as for B1
B12: 005-C04-44-25-1 (Fab, V domains shown)
VH: B1 VH with W34N, M51I, R53S, L54A
VL: B1 VL with Y31A, V55Q, Q57P
notes: as for B1
B13: 005-C04-45-1 (Fab, V domains shown)
VH: B1 VH with W34N, M51I, L54A
VL: B1 VL with Q57P
notes: as for B1
B14: 005-C04-46-1 (Fab, V domains shown)
VH: B1 VH with W34N, S56P
VL: B1 VL
notes: as for B1
B15: 005-C04-47-3 (Fab, V domains shown)
VH: B1 VH with M51I, L54A, S56P
VL: B1 VL with V55Q, Q57P
notes: as for B1
B16: 005-C04-50-28-3 (Fab, V domains shown)
VH: B1 VH with W34M, M51R, R53S, L54A
VL: B1 VL with Y31A, V55Q, Q57P
notes: as for B1
B17: 005-C04-51-29-0 (Fab, V domains shown)
VH: B1 VH with W34M, M51I, S52A, R53S, L54A
VL: B1 VL with Y31A, V55Q, Q57P
notes: as for B1
B18: 005-C04-52-29-0 (Fab, V domains shown)
VH: B1 VH with W34M, M51I, R53W, L54A
VL: B1 VL with Y31A, V55Q, Q57P
notes: as for B1
B19: 005-C04-52-29-7 (Fab, V domains shown)
VH: B1 VH with W34M, M51I, L54A
VL: B1 VL with Y31A, V55Q, Q57P
notes: as for B1
B20: 005-C04-53-31-7 (Fab, V domains shown)
VH: B1 VH with W34M, M51I, R53S
VL: B1 VL with Y31A, V55Q, Q57P
notes: as for B1
B21: 005-C04-55-32-0 (Fab, V domains shown)
VH: B1 VH with W34M, M51I, R53S, L54A, S56P
VL: B1 VL with Y31A, V55Q, Q57P
notes: as for B1
B22: 005-C04-58-33-1 (Fab, V domains shown)
VH: B1 VH with W34M, M51I, R53S, L54A, N59G
VL: B1 VL with Y31A, V55Q, Q57P
notes: as for B1
B23: 005-C04-L2-1-2-3 (Fab, V domains shown)
VH: B1 VH with W34N, S52A, L54A, S56P, N59G
VL: B1 VL with Y31A, V55W, Q57P
notes: as for B1
B24: 005-C04-L2-1-3-2 (Fab, V domains shown)
VH: B1 VH with W34N, S52A
VL: B1 VL with Y31A
notes: as for B1
B25: 005-C04-L2-1-4-5 (Fab, V domains shown)
VH: B1 VH with M51I, L54A
VL: B1 VL with V55W, Q57P
notes: as for B1
B26: 005-C04-L2-1-11-0 (Fab, V domains shown)
VH: B1 VH with S52A
VL: B1 VL with Y31A
notes: as for B1
B27: 005-C04-L2-1-11-3 (Fab, V domains shown)
VH: B1 VH with W34N, R53S
VL: B1 VL with Y31A, Q57P
notes: as for B1
B28: 005-C04-L2-1-12-4 (Fab, V domains shown)
VH: B1 VH with W34N, M51I, S52A
VL: B1 VL with Y31A, V55W, Q57P
notes: as for B1
B29: 005-C04-L2-1-16-4 (Fab, V domains shown)
VH: B1 VH with W34N
VL: B1 VL with Y31A, V55W, Q57P
notes: as for B1
B30: 005-C04-L2-1-20-0 (Fab, V domains shown)
VH: B1 VH
VL: B1 VL with Y31A
notes: as for B1
B31: 005-C04-L2-1-20-1 (Fab, V domains shown)
VH: B1 VH with M51I, S52A, L54A
VL: B1 VL with V55W, Q57P
notes: as for B1
B32: 005-C04-L2-1-21-7 (Fab, V domains shown)
VH: B1 VH
VL: B1 VL with Y31A, V55Q
notes: as for B1
B33: 005-C04-L2-1-23-7 (Fab, V domains shown)
VH: B1 VH with W34N, M51I, L54A, S56P, N59G
VL: B1 VL with Y31A, V55W, Q57P
notes: as for B1

Molecular target: T1, extracellular domain of human PRLR …
Assay: ELISA: plate coated with human PRLR extracellular domain, Fab-containing E. coli supernatant, anti-flag-HRP, Amplex Red
Protocol: 96 well microtiter plates were coated with 1 μg per milliliter of human PRLR. Plates were incubated over night at 4° C. After blocking with PBS buffer containing 3% bovine serum albumin, normalized E. coli-derived supernatants containing the Fab variants were added. Detection of formed complexes occurred via the addition of an anti-flag antibody (Sigma, A8592) labeled with horseradish peroxidase.

Binder | binding result
B1 | binds
B2 | binds
B3 | binds
B4 | binds
B5 | binds
B6 | binds
B7 | binds
B8 | binds
B9 | binds
B10 | binds
B11 | binds
B12 | binds
B13 | binds
B14 | binds
B15 | binds
B16 | binds
B17 | binds

Binder | binding result
B18 | binds
B19 | binds
B20 | binds
B21 | binds
B22 | binds
B23 | binds
B24 | binds
B25 | binds
B26 | binds
B27 | binds
B28 | binds
B29 | binds
B30 | binds
B31 | binds
B32 | binds
B33 | binds
